Assay results from paper PMC6591361, “Recombinant production of human α2-macroglobulin variants and interaction studies with recombinant G-related α2-macroglobulin binding protein and latent transforming growth factor-β2” (Scientific Reports, 2019).

T1: methylamine-induced authentic human α2-macroglobulin (human, UniProt P01023 24-1474, thioester bond opened by methylamine, producing a free cysteine)
T1 construct: human α2-macroglobulin, UniProt P01023; plasma protein as m1, induced form; Tetramer (684.1 kDa by SEC-MALLS); also called induced hα2M; induced authentic hα2M
T1 sequence (looked up): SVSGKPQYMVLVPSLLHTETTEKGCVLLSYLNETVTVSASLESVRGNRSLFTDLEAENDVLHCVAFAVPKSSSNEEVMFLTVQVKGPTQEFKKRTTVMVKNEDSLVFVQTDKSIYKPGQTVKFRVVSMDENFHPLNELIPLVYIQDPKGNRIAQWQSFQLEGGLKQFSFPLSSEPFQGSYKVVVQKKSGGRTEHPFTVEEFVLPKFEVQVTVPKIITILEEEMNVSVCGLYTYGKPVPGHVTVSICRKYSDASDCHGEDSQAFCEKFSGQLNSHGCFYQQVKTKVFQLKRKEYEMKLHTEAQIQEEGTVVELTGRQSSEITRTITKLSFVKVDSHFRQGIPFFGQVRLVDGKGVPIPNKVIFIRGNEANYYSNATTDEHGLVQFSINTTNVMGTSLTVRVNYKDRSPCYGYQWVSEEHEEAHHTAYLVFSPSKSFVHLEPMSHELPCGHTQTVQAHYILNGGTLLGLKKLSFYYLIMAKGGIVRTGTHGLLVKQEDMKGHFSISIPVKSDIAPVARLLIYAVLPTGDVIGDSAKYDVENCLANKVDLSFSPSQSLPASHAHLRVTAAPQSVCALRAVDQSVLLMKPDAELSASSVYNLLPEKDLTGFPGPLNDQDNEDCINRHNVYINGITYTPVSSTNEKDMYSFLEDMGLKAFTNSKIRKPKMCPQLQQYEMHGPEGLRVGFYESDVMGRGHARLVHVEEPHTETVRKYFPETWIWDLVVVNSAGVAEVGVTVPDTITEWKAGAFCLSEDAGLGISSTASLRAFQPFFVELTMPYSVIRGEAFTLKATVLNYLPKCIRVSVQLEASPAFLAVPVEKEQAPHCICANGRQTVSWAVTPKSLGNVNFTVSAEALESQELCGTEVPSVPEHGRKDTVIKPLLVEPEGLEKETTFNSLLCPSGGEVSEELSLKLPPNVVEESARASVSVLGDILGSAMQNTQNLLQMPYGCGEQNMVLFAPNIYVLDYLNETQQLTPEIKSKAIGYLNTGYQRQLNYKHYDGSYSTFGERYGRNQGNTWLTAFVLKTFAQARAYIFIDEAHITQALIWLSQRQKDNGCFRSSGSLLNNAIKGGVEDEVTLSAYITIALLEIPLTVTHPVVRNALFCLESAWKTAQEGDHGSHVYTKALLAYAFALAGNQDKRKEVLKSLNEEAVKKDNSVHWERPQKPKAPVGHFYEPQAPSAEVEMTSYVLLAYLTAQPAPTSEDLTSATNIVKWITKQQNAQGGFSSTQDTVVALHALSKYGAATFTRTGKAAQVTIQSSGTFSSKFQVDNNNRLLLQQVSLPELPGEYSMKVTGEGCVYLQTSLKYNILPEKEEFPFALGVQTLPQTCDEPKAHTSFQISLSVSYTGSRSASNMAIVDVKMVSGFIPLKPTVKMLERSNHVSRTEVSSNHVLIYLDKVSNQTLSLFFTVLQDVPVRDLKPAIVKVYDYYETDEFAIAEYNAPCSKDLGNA

T2: native authentic human α2-macroglobulin (human, UniProt P01023 24-1474, thioester bond intact (native form))
T2 construct: human α2-macroglobulin, UniProt P01023, 1,474-residue precursor; as secreted it lacks the signal peptide (recombinant constructs begin at S24); Tetramer (680.6 kDa by SEC-MALLS); glycosylated; also called hα2M; native hα2M; source: purified from human blood plasma of individual donors (PEG 4,000 precipitation, zinc-chelating resin, IEC, SEC)
T2 sequence (looked up): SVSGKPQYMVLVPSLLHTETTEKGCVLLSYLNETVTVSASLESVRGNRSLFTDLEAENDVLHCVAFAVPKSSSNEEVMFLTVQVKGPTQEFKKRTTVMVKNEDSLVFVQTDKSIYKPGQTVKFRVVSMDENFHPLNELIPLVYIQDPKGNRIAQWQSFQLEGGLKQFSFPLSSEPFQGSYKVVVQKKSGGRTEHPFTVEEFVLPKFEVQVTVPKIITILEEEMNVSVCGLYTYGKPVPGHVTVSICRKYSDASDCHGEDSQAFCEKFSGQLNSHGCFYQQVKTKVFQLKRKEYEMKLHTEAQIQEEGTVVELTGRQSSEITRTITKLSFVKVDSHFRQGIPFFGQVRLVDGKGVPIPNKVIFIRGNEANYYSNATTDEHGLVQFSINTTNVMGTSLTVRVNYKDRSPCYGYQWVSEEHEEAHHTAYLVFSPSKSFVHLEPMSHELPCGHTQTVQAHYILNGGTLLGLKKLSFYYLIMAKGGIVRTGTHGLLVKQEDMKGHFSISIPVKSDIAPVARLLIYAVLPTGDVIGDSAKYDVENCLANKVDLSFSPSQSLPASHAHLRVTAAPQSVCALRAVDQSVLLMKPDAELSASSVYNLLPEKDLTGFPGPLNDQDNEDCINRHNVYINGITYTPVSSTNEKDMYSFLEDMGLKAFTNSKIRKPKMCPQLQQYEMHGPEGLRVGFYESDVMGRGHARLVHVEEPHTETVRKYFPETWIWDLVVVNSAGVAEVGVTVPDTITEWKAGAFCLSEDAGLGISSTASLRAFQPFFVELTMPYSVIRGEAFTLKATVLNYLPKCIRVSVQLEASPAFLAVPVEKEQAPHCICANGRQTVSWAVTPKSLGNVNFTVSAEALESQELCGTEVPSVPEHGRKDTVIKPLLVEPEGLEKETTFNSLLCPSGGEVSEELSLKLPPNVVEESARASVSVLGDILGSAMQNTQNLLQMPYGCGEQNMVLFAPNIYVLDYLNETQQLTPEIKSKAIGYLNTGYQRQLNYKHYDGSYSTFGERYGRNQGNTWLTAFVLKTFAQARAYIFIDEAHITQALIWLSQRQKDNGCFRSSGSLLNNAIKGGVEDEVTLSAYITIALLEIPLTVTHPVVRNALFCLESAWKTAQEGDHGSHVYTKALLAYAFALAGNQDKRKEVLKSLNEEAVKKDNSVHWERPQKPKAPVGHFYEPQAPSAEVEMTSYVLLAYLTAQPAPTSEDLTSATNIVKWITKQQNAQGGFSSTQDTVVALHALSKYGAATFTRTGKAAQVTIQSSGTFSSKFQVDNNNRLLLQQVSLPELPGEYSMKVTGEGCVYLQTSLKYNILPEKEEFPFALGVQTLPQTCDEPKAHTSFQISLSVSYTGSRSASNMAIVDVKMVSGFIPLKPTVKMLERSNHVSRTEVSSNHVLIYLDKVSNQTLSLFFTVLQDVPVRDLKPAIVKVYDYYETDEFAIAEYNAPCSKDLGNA


Assays:
Conditions in all cases: both partners purified
[1] = target: T1, methylamine-induced authentic human …; experiment: SPR; as a1, affinity analysis: steady-state responses (Req) against analyte concentration, 1:1 model
[2] = target: T2, native authentic human α2-macroglobulin; experiment: as above
[3] = target: T2, native authentic human α2-macroglobulin; experiment: SPR; Strep-tagged GRAB (9.7 nM) captured on Streptactin XT on a CM5 chip; analytes injected in multicycle runs (4–600 nM authentic hα2M, 75–1,200 nM N-hα2M and C-hα2M); HBNS (10 mM HEPES, 150 mM sodium chloride, pH 7.4), 37 °C; kinetic fit, 1:1 Langmuir model
[4] = target: T1, methylamine-induced authentic human …; experiment: SEC-MALS; SEC-MALLS, Superose 6 10/300, buffer J (20 mM sodium phosphate, 150 mM sodium chloride, pH 7.4), 25 °C; GRAB to authentic hα2M at a molar ratio of 4:1; triplicate
[5] = target: T2, native authentic human α2-macroglobulin; experiment: as above

Binder	Kd [1]	Kd [2]	Kd [3]	koff [3]	kon [3]	stoichiometry N [4]	stoichiometry N [5]
Strep-tagged G-related α2M-binding protein (GRAB), V34-N181 (domain or fragment, residues left at the N-terminus after TEV cleavage, from the cloning strategy; also called Strep-tagged GRAB; pCri-H6-TEV-GRAB-STREP; source: E. coli BL21 (DE3), purified (Streptactin XT, IEC, SEC); not shown: His6, N-terminal, cleaved; Strep-tag, C-terminal, kept) GAMVDSPIEQPRIIPNGGTLTNLLGNAPEKLALRNEERAIDELKKQAIEDKEATTAIEAASSDALEALADQTDALQSEEAAVVKADNAASDALEALADQTDALQSEEAEVVQSDNAASDAWEKAATPIALDVKKTKDTKPVVKKEERQNVN	94.6 nM	34.5 nM	14.3 nM	0.0019 s⁻¹	132000 M⁻¹ s⁻¹	–	–
G-related α2M-binding protein (GRAB), V34-N181, untagged (domain or fragment, residues left at the N-terminus after TEV cleavage, from the cloning strategy; the theoretical mass of 15.8 kDa that it compares with fits the untagged form (surmise); also called pCri-H6-TEV-GRAB; source: E. coli BL21 (DE3), purified (Ni-NTA, TEV cleavage, reverse Ni-NTA, IEC, SEC); not shown: His6, N-terminal, cleaved) GAMVDSPIEQPRIIPNGGTLTNLLGNAPEKLALRNEERAIDELKKQAIEDKEATTAIEAASSDALEALADQTDALQSEEAAVVKADNAASDALEALADQTDALQSEEAEVVQSDNAASDAWEKAATPIALDVKKTKDTKPVVKKEERQNVN	–	–	–	–	–	2 GRAB per hα2M tetramer	1.7 GRAB per hα2M tetramer
